Substitutions are numbered along the chain they refer to. Each block holds one binder with its values, some of them ahead of it.
Key:
[1] = target: human CD123 on cells (human) (UniProt P26951); assay: flow cytometry, THP-1 cells, 3 µg antibody
[2] = target: human CD123 on cells (human) (UniProt P26951); assay: flow cytometry, TF-1 cells, 3 µg antibody
[3] = target: human CD123 on cells (human) (UniProt P26951); assay: cell-based or functional assay
[4] = target: Macaca fascicularis CD3ε/δ-Fc fusion heterodimer (Macaca fascicularis) (UniProt Q95LI8); assay: SPR Biacore, Fab; unit inferred
Chain of Macaca fascicularis CD3ε/δ-Fc fusion heterodimer (Macaca fascicularis) (chain, as listed by the source mutant, chain 1 of 2): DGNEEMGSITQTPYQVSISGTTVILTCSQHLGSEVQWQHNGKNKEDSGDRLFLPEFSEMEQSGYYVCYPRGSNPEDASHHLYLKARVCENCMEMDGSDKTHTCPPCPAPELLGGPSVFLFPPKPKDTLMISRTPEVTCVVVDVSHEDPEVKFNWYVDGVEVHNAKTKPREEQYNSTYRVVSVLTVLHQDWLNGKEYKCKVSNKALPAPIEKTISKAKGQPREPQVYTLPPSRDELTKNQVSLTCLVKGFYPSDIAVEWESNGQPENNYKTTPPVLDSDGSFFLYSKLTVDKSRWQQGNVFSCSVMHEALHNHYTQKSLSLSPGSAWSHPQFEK
Chain of Macaca fascicularis CD3ε/δ-Fc fusion heterodimer (Macaca fascicularis) (Q95LI8 22-105, stated change not applied, chain 2 of 2): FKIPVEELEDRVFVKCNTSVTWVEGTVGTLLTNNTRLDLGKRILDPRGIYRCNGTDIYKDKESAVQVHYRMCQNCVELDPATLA

[5] = target: Macaca fascicularis CD3ε/δ-Fc fusion heterodimer (Macaca fascicularis) (UniProt Q95LI8); assay: SPR, cyno against human CD3ε/δ
[6] = target: Macaca fascicularis CD3ε/δ-Fc fusion heterodimer (Macaca fascicularis) (UniProt Q95LI8); assay: SPR, CD3ε/δ-Fc captured, Fab analyte
[7] = target: Macaca fascicularis CD3ε/δ-Fc fusion heterodimer (Macaca fascicularis) (UniProt Q95LI8); assay: SPR, steady state

Chain of human CD123 on cells (human) (P26951 19-378): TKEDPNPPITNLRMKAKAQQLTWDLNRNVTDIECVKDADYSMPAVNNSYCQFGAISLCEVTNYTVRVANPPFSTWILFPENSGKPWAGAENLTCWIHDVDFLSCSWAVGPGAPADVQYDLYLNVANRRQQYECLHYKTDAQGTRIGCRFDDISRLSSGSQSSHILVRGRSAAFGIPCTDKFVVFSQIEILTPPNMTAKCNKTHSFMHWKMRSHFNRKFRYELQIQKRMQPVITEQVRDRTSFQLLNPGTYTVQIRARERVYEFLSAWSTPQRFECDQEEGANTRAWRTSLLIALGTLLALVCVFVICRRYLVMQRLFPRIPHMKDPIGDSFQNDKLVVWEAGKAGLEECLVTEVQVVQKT

B2: CODV-Fab 7G3 × OKT3 (bispecific antibody, part only; not given: OKT3 variable domains, full chains, V domains shown, part only)
VH: EVQLQQSGPELVKPGASVKMSCKASGYTFTDYYMKWVKQSHGKSLEWIGDIIPSNGATFYNQKFKGKATLTVDRSSSTAYMHLNSLTSEDSAVYYCTRSHLLRASWFAYWGQGTLVTVSA
VL: DFVMTQSPSSLTVTAGEKVTMSCKSSQSLLNSGNQKNYLTWYLQKPGQPPKLLIYWASTRESGVPDRFTGSGSGTDFTLTISSVQAEDLAVYYCQNDYSYPYTFGGGTKLEIK
Activity EC50 (cytotoxic assay, THP-1 targets + primary human T cells) [3]: 16 ng/mL

B4: 1E6 Fab (Fab, V domains shown)
VH: EVQLVETGGSLVQPGKSLKLTCATSGFTFSYAWMHWVRQSPDKQLQWVAQIKAKSNNYATYYAESVEGRFTISRDDSKSSVYLQMNSLKEEDTAIYYCRGVYYGLLGLDAWGQGTSVTVSS
VL: DVVMTQTPVSLSVRLGGQVSISCRSSQSLVHNNGNTYLSWFLQKPGQSPQLLIYKVSNRFSGISDRFSGSASGTDFTLKISRVEPDDLGVYYCGQGTHYPFTFGSGTKLEIK
ratio KD(cy)/KD(hu) [5]: 1
Kd [6]: 42 nM
koff [6]: 0.0042 s⁻¹
kon [6]: 100000 M⁻¹ s⁻¹

B5: 5B1-G2 Fab (Fab, V domains shown)
VH: EVQVVETGGSLVQPGKSLKLTCATSGFSFSNAWMHWVRQSPEKQLEWVAQIKDKANNYATYYAESVKGRFTISRDDSKGSIYLQMNSLKEEDTAVYYCRGLYYGLFPSDYWGQGVMVTVSS
VL: B4 VL with R14S, F41Y, Q43L, S70G, A71G, V83L, V90I, H98Q
ratio KD(cy)/KD(hu) [5]: 1
Kd [6]: 4.3 nM
koff [6]: 0.00015 s⁻¹
kon [6]: 34000 M⁻¹ s⁻¹

B7: 13H2 Fab (Fab, V domains shown)
VH: EEELVETGGSLVQPGKSLKLTCATSGFTFSNAWMHWVRQSPDKQLEWVAQIKAKSNNYATYYAESVKGRFTISRDDSKSSVYLQMNNLKEEDTAIYYCRYVHYGLAPMDAWGQGTSVTVSS
VL: B4 VL with R14S, F41Y, P45A, A71G, T77I, Y91F, H98Q, S105A, I111L
ratio KD(cy)/KD(hu) [5]: 1
Kd [6]: 32 nM
koff [6]: 0.0059 s⁻¹
kon [6]: 180000 M⁻¹ s⁻¹

B10: CODV-Fab BFX-2F8-D6 × CD3 (bispecific antibody, V domains shown, not shown: a dimerising Fc or GST; small tags and cut ends)
VH: QVQLKESGPGLVQPSQTLSLTCTVSGFSLTSYGVSWVRQPPGKGLEWIATISSAGSTYYDLVLKSRLSITRDTSKSQVFLKVHSLQTEDTAIYLCARDAPVFNYGSYNAMDSWGQGTSVTVSS
VL: DIQMTQSPSFLSATVGDRVTINCKASQNINKYLNWYQQKLGEAPKRLIYNTNSLQTGIPSRFSGSGSGTDYTLTISSLQPEDVATYFCLQHKSGLTFGSGTKLEIK
% FITC positive cells [1]: 24%
% FITC positive cells [2]: 9.3%

B12: 12D2-E5 Fab (Fab, V domains shown)
VH: EVKLVESGGGLVQPGRSLRLSCAASGFNFYAYWMGWVRQAPGKGLEWIGEIKKDGTTINYTPSLKDRFTISRDNAQNTLYLQMTKLGSEDTALYYCAREERDGYFDYWGQGVMVTVSS
VL: QFVLTQPNSVSTNLGSTVKLSCKRSTGNIGSNYVNWYQQHEGRSPTTMIYRDDKRPDGVPDRFSGSIDRSSNSALLTINNVQTEDEADYFCQSYSSGIVFGGGTKLTVL
Kd [7]: 4.8 nM
ratio KD(cy)/KD(hu) [5]: 4

Continued, in another order:

% FITC positive cells [1]: 99.7%
% FITC positive cells [2]: 60.7%
B1: CODV-Fab BFX-9F6-G3 × CD3 (bispecific antibody, part only; not given: CD3 arm, linkers, constant domains, tag, V domains shown, not shown: another chain or arm of the molecule; a dimerising Fc or GST; small tags and cut ends)
VH: QVQLQESGPTLVKPGDSVKMSCKASGYTFTDYIIHWVKQSHGKSLEWIGYINPYSDGTNYNEKFKSKATLTVDKSTSTAYMEFSRLTSEDSAIYFCALNYGSYYAMDAWGQGTSVTVSS
VL: DIQMTQSPASLSASLGETVTIECRPSEDIHSNVAWYQQKPGNSPQLLIYDASNLADGVPSRFSGSGSGTQYSLKINSLQSEDVASYFCHQYNIYPYTFGSGTKLELK

Kd [4]: 43.4 nM
B3: humanized 4B4 Fab 4B4_20 (VL2F / VH6C) (Fab, V domains shown)
VH: QVQLVESGGGVVQPGRSLRLSCAASGFTFSNAWMHWVRQAPGKQLEWVAQIKARSNNYATYYADSVKGRFTISRDDSKSTLYLQMNSLRAEDTAVYYCRGTYYASKPFDYWGQGTLVTVSS
VL: DIVMTQTPLSLSVTPGQPASISCKSSQSLVHDNANTYLSWYLQKPGQSPQSLIYKVSNRFSGVPDRFSGSGSGTDFTLKISRVEAEDVGVYYCGQGTQYPFTFGSGTKVEIK

Kd [4]: 9.07 nM
B6: humanized 4B4 Fab 4B4_17 (VL2A / VH2B) (Fab, V domains shown)
VH: EVQLVETGGGLVQPGGSLKLTCATSGFTFSNAWMHWVRQSPEKGLEWVAQIKARSNNYATYYADSVKGRFTISRDDSKSTIYLQMNSLRAEDTAIYYCRGTYYASKPFDYWGQGVMVTVSS
VL: B4 VL with R14S, L15P, Q18P, N32D, F41S, L51V, I63V, S68T, A71G, H98Q

% FITC positive cells [1]: 48.8%
% FITC positive cells [2]: 31.1%
B8: CODV-Fab BFX-9B8-G6 × CD3 (bispecific antibody, part only; not given: CD3 arm, linkers, constant domains, tag, V domains shown, not shown: another chain or arm of the molecule; a dimerising Fc or GST; small tags and cut ends)
VH: EVKLQESGPSLVQSSQTLSLTCTVSGFSLTSYHIHWVRQPPGKGLEWMGVMWSDGDTSYSSALKSRLSISRDTSQSQVFLKMNSLQTEDTATYYCARGDYSSYIYLWFAYWGQGTLVTVSS
VL: DIVMTQSPSSLAVSAGETVTINCKSSQSFLSSGDERNYVAWYQHKPGQSPKLLIYWASTRHSGVPDRFIGSGSGTDFTLTISSVQAEDLAIYYCQQYYDTPLTFGSGTKLEIK

% FITC positive cells [1]: 88.7%
% FITC positive cells [2]: 50.2%
B9: CODV-Fab BFX-9D7-C8 × CD3 (bispecific antibody, part only; not given: CD3 arm, linkers, constant domains, tag, V domains shown, not shown: another chain or arm of the molecule; a dimerising Fc or GST; small tags and cut ends)
VH: B8 VH with P40T, S60N, D99Y, I104L
VL: B8 VL with A15E, E35G, R36K, H44Y, H61Q, S83T

% FITC positive cells [1]: 99%
% FITC positive cells [2]: 31.6%
B11: CODV-Fab BFX-3E3-D3 × CD3 (bispecific antibody, part only; not given: CD3 arm, linkers, constant domains, V domains shown, part only)
VH: QVQLQESGPGLVQPSQTLSLTCTVSGFSLTTYDVHWVRQPPGKGLEWMGRIQNGGITDYNSALKSRLIISRDTSKSQVFLKMNSVQTEDTAMYFCAKTGSYFYAFDHWGQGTLVTVSS
VL: QFVLTQPNSVSTNLGSTVKLSCKRNTGNIGSNYVNWYQQHEGRSPTTMIYRDDKRPDGVPDRFSGSIDRSSNSALLTINNVQTEDEADYFCQSYSSGINIIFGGGTKLTVL
EC50 cytotoxic assay (THP-1), geomean [3]: 12.2 ng/mL
